Measurements from patent US6514938B1, “Copolymer 1 related polypeptides for use as molecular weight markers and for therapeutic use” (Yeda Research and Development Co. Ltd. at the Weizmann …, priority 1998, dated 2003).
Each block holds one molecule with its values, some of them ahead of it.

Assays:
[1] = system: experimental allergic encephalomyelitis (EAE) in (SJL/JxBALB/c)FI mice; assay: Blocking of experimental allergic encephalomyelitis by injection with complete adjuvant; assay type: in vivo, mouse; conditions: for Incidence of EAE: antigen included in the encephalitogenic inoculum, animals with EAE/animals in group; for % Blocking: blocking of EAE versus control without antigen; for Mean Score: disease score 0 (healthy) to 5 (dead); for Mean Onset: animals not protected, onset = day of score of at least 1
Description: Blocking of Experimental Allergic Encephalomyelitis—To test the physiological activity of TV-markers, protection from experimental allergic encephalomyelitis (EAE) was investigated in mice. Injection of Copolymer 1 in complete Freund's adjuvant together with the encephalitogen can block EAE essentially as described in Aharoni et al., 17 Eur. J. Immunol. 23 (1993). Other researchers have observed that the therapeutic effect of Copolymer 1 in multiple sclerosis patients is also associated with the induction of TH2 cells. Lahat et al., 244 J. Neurol. 129 (1997). In this example, EAE is blocked by different polypeptides of the present invention.
Pertussis toxin (0.25 ml, 250 ng, Sigma) is injected intravenously, immediately after and 48 hr later. […] 2156 (1979).
EAE blocking by injection with complete adjuvant—Each antigen being tested was included in the encephalitogenic inoculum. […] Also shown is the mean onset of EAE in animals which were not protected. Disease intensity is scored daily in mice with a score of zero (0=healthy) to five (5=dead).

[2] = system: SC-103 Cop 1 specific T cell clone; assay: Proliferation of Cop 1 specific T cell line (3H-thymidine uptake); conditions: for 3H-Thymidine incorporation (% Cop 1): 10 μg antigen, relative to 03494; for 3H-Thymidine incorporation cpm: cultured with 10 μg antigen
[3] = system: anti-Cop-1 (3-1-45) monoclonal antibody; assay: RIA: binding of anti-Cop 1 monoclonal antibody to coated antigen; conditions: for % Cop 1 binding: relative to Cop 1 reference standard 03494; for Binding of mAb cpm: wells coated with 2 μg/ml antigen, 125I-goat anti-mouse IgG bound
L-22-1 T cell clone = assay: Proliferation of Cop 1 specific T cell line (3H-thymidine uptake); conditions: for 3H-Thymidine incorporation (% Cop 1): 10 μg antigen, relative to 03494; for 3H-Thymidine incorporation cpm: cultured with 10 μg antigen
[4] = system: anti-Cop-1 (3-3-9) monoclonal antibody; assay: RIA: binding of anti-Cop 1 monoclonal antibody to coated antigen; conditions: for % Cop 1 binding: relative to Cop 1 reference standard 03494; for Binding of mAb cpm: wells coated with 2 μg/ml antigen, 125I-goat anti-mouse IgG bound
[5] = system: BALB/c-Ts-Cop-1 T cell line; assay: Proliferation of Cop 1 specific T cell line (3H-thymidine uptake); conditions: for 3H-Thymidine incorporation (% Cop 1): 10 μg antigen, relative to 03494; for 3H-Thymidine incorporation cpm: cultured with 10 μg antigen
[6] = system: SC-14 Cop 1 specific T cell clone; assay: as above; conditions: for 3H-Thymidine incorporation (% Cop 1): 10 μg antigen, relative to 03494; for 3H-Thymidine incorporation cpm: cultured with 10 μg antigen
[7] = system: anti-Cop-1 (5-7-2) monoclonal antibody; assay: RIA: binding of anti-Cop 1 monoclonal antibody to coated antigen; conditions: for % Cop 1 binding: relative to Cop 1 reference standard 03494; for Binding of mAb cpm: wells coated with 2 μg/ml antigen, 125I-goat anti-mouse IgG bound

Molecule: AKKYAKKAKAEKAKKAYKAAEAKKAAKYEKAAAEKAAAKEAAYEA [TV-45]
Incidence of EAE [1]: 0/10
% Blocking [1]: 100%
Mean Score [1]: 0

% Cop 1 binding [3]: (0) %
Binding of mAb cpm [3]: 343 cpm
% Cop 1 binding [4]: (0) %
Binding of mAb cpm [4]: 1176 cpm
% Cop 1 binding [7]: (1) %
Binding of mAb cpm [7]: 657 cpm
Molecule: AKKYAKKEKAAKKAYKKEAKAKAAEAAAKEAAYEA [TV-35]
3H-Thymidine incorporation (% Cop 1) [2]: (0) %
3H-Thymidine incorporation cpm [2]: 438 cpm
3H-Thymidine incorporation (% Cop 1) (L-22-1 T cell clone): (0) %
3H-Thymidine incorporation cpm (L-22-1 T cell clone): 225 cpm
3H-Thymidine incorporation (% Cop 1) [5]: (28) %
3H-Thymidine incorporation cpm [5]: 9465 cpm
3H-Thymidine incorporation (% Cop 1) [6]: (0) %
3H-Thymidine incorporation cpm [6]: 884 cpm

Molecule: AKKYAKKEKAYAKKAEKAAKKAEAKAYKAAEAKKKAEAKYKAEAAKAAAKEAAYEA [TV-56]
3H-Thymidine incorporation (% Cop 1) [2]: (0) %
3H-Thymidine incorporation cpm [2]: 237 cpm
% Cop 1 binding [3]: (6) %
Binding of mAb cpm [3]: 1581 cpm
3H-Thymidine incorporation (% Cop 1) (L-22-1 T cell clone): (0) %
3H-Thymidine incorporation cpm (L-22-1 T cell clone): 232 cpm
% Cop 1 binding [4]: (2) %
Binding of mAb cpm [4]: 1614 cpm
3H-Thymidine incorporation (% Cop 1) [5]: (59) %
3H-Thymidine incorporation cpm [5]: 19545 cpm
3H-Thymidine incorporation (% Cop 1) [6]: (117) %
3H-Thymidine incorporation cpm [6]: 3495 cpm
% Cop 1 binding [7]: (91) %
Binding of mAb cpm [7]: 9584 cpm

B1: AKKYAKKAEKAYAKKAKAAKEKKAYAKKEAKAYKAAEAKKKAKAEAKKYAKEAAKAKKEAYKAEAKKYAKAAKAEKKEYAAAEAKKAEAAKAYKAEAAKAAAKEAAYEA (peptide)
chain: AKKYAKKAEKAYAKKAKAAKEKKAYAKKEAKAYKAAEAKKKAKAEAKKYAKEAAKAKKEAYKAEAKKYAKAAKAEKKEYAAAEAKKAEAAKAYKAEAAKAAAKEAAYEA
notes: reversed-phase fraction 2 used for calibration
Incidence of EAE [1]: 0/10
% Blocking [1]: 100%
Mean Score [1]: 0

% Cop 1 binding [3]: (6) %
Binding of mAb cpm [3]: 1606 cpm
% Cop 1 binding [4]: (2) %
Binding of mAb cpm [4]: 1625 cpm
% Cop 1 binding [7]: (76) %
Binding of mAb cpm [7]: 8140 cpm
B2: AKKYAKKEKAYAKKAEKAAKKAEAKAYKAAEAKKKAKAEAKKYAKAAKAEKKEYAAAEAKYKAEAAKKAYKAEAAKAAAKEAAYEA (peptide)
chain: AKKYAKKEKAYAKKAEKAAKKAEAKAYKAAEAKKKAKAEAKKYAKAAKAEKKEYAAAEAKYKAEAAKKAYKAEAAKAAAKEAAYEA
Mean Onset [1]: 12.0 days
Incidence of EAE [1]: 3/10
% Blocking [1]: 70%
Mean Score [1]: 0.7
3H-Thymidine incorporation (% Cop 1) [2]: (0) %
3H-Thymidine incorporation cpm [2]: 298 cpm
3H-Thymidine incorporation (% Cop 1) (L-22-1 T cell clone): (1) %
3H-Thymidine incorporation cpm (L-22-1 T cell clone): 418 cpm
3H-Thymidine incorporation (% Cop 1) [5]: (44) %
3H-Thymidine incorporation cpm [5]: 14694 cpm
3H-Thymidine incorporation (% Cop 1) [6]: (65) %
3H-Thymidine incorporation cpm [6]: 2284 cpm

% Cop 1 binding [3]: (9) %
Binding of mAb cpm [3]: 2152 cpm
% Cop 1 binding [4]: (6) %
Binding of mAb cpm [4]: 2265 cpm
% Cop 1 binding [7]: (37) %
Binding of mAb cpm [7]: 4259 cpm
B3: AKKYAKKEKAYAKKAEKAAKKAEAKAYKAAEAKKKAKAEAKKYAKAAKAEKKEYAAAEAKYKAEAAKAAAKEAAYEA (peptide)
chain: AKKYAKKEKAYAKKAEKAAKKAEAKAYKAAEAKKKAKAEAKKYAKAAKAEKKEYAAAEAKYKAEAAKAAAKEAAYEA
Mean Onset [1]: 14.0 days
Incidence of EAE [1]: 1/9
% Blocking [1]: 89%
Mean Score [1]: 0.2
3H-Thymidine incorporation (% Cop 1) [2]: (0) %
3H-Thymidine incorporation cpm [2]: 327 cpm
3H-Thymidine incorporation (% Cop 1) (L-22-1 T cell clone): (1) %
3H-Thymidine incorporation cpm (L-22-1 T cell clone): 300 cpm
3H-Thymidine incorporation (% Cop 1) [5]: (52) %
3H-Thymidine incorporation cpm [5]: 17367 cpm
3H-Thymidine incorporation (% Cop 1) [6]: (83) %
3H-Thymidine incorporation cpm [6]: 2701 cpm

B4: AKKYAKKEKAYAKAKKAEAKAAKKAKAEAKKYAKAAKAEKKEYAAAEAKYKAEAAKAAAKEAAYEA (peptide)
chain: AKKYAKKEKAYAKAKKAEAKAAKKAKAEAKKYAKAAKAEKKEYAAAEAKYKAEAAKAAAKEAAYEA
Mean Onset [1]: 11.7 days
Incidence of EAE [1]: 6/10
% Blocking [1]: 40%
Mean Score [1]: 2.8
